Results taken from article PMC5450233.
Numbering of substitutions follows the chain as printed. Names and notes keep the numbering of the source.

B1: GST–SKIP(1-310), Q8IWE5 D220A; F221A; G222A (protein)
chain: MEPGEVKDRILENISLSVKKLQSYFAACEDEIPAIRNHDKVLQRLCEHLDHALLYGLQDLSSGYWVLVVHFTRREAIKQIEVLQHVATNLGRSRAWLYLALNENSLESYLRLFQENLGLLHKYYVKNALVCSHDHLTLFLTLVSGLEFIRFELDLDAPYLDLAPYMPDYYKPQYLLDFEDRLPSSVHGSDSLSLNSFNSVTSTNLEWDDSAIAPSSEDYAAADVFPAVPSVPSTDWEDGDLTDTVSGPRSTASDLTSSKASTRSPTQRQNPFNEEPAETVSSSDTTPVHTTSQEKEEAQALDPPDACTEL
B2: GST–SKIP(1-310), Q8IWE5 D238A; G239A; D240A (protein)
chain: B1 chain with A220D, A221F, A222G, D238A, G239A, D240A
B3: GST–SKIP(1-310), Q8IWE5 W236A; E237A (protein)
chain: B1 chain with A220D, A221F, A222G, W236A, E237A
B4: GST–SKIP(1-310), Q8IWE5 E217A; D218A; Y219A (protein)
chain: B1 chain with E217A, D218A, Y219A, A220D, A221F, A222G

molecular target: HA–KLC2, O88448; test: GST pull-down, immunoblot (IB: HA) quantified; details: chain shown with the change; lysates of 293T cells co-expressing HA-KHC and HA-KLC2 (kinesin-1 tetramer); three independent experiments; parent: est. 1.0; read off a plot
Sequence (O88448 whole entry): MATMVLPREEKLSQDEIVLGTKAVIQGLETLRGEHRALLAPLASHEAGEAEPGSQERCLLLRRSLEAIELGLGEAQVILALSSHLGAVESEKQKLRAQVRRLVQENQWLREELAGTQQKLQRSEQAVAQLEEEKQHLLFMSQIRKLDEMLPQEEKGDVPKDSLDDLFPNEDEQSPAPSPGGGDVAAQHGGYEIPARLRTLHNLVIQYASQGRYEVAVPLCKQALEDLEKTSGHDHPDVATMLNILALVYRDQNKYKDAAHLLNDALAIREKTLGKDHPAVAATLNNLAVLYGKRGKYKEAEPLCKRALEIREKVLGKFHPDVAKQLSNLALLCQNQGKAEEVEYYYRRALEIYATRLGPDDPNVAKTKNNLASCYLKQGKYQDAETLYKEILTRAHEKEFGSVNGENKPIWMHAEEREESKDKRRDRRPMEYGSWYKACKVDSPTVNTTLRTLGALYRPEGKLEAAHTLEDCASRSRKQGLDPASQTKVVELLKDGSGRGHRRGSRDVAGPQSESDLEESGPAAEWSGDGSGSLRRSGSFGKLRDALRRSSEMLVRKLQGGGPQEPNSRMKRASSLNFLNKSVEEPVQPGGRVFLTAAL

Point of comparison: B1, ratio to parent 0.47. Against it:
- B2 — higher, 0.89
- B3 — higher, 0.95
- B4 — higher, 0.63
